Test results: patent publication US20250042994A1 (HAINAN SIMCERE ZAIMING PHARMACEUTICAL, published 2025)

T1: Human CD19-his protein (human, UniProt P15391 20-291)
T1 construct: bought protein; also called recombinant human CD19-His; CD19 full-length protein; not shown: His tag
T1 sequence (looked up): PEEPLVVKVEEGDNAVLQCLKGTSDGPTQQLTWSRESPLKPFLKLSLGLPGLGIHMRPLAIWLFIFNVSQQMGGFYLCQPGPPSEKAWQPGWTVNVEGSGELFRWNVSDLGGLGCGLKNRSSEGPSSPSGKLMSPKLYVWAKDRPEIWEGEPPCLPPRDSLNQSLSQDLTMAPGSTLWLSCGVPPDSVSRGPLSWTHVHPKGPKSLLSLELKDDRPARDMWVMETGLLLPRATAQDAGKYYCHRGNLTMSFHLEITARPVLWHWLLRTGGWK

T2: human CD19 exon1-3-His tag protein (human, UniProt P15391 20-186, limits assumed)
T2 construct: membrane-distal part of the extracellular region, made in HEK293E cells; not shown: His tag
T2 sequence (looked up): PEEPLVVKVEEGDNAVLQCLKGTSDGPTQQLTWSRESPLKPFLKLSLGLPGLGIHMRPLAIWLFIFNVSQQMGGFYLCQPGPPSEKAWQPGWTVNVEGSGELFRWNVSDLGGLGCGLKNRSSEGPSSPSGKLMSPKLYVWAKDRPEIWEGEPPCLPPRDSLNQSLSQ

T3: human CD19 on Raji cells (human, UniProt P15391 20-556)
T3 construct: whole, on cells
T3 sequence (looked up): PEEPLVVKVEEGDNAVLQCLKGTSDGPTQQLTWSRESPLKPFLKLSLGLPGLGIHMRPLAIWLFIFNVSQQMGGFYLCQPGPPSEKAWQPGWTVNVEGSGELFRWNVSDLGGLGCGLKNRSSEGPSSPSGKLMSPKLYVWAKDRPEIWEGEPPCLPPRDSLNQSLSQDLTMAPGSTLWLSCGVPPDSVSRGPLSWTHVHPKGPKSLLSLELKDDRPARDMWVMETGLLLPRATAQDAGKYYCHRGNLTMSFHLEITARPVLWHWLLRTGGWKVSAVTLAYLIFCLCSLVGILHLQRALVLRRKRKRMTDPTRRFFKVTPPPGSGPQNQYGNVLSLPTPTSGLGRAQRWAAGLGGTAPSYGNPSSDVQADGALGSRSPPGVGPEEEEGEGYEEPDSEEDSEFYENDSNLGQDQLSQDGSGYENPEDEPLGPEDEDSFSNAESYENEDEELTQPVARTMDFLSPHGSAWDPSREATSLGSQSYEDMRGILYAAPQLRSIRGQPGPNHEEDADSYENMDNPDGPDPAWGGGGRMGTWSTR

T4: human CD19 on CHO-K1-human CD19 cells (human, UniProt P15391 20-556)
T4 construct: whole, on cells; also called CHO-K1-human CD19-2C8
T4 sequence (looked up): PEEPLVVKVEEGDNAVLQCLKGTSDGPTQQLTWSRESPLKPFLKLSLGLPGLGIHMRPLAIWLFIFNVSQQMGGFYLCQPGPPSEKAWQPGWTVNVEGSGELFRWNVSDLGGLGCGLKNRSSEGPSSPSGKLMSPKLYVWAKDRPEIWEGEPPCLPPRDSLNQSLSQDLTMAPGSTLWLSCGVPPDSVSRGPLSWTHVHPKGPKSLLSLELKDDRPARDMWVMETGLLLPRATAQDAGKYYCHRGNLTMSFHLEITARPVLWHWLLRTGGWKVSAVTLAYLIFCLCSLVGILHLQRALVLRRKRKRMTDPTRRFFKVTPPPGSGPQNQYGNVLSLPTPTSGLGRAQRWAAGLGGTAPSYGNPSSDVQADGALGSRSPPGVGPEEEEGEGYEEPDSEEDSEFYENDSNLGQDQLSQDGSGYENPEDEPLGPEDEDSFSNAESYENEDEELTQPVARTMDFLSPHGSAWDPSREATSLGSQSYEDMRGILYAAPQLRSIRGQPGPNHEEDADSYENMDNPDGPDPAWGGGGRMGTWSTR


How the values were obtained:
Human CD19-his protein [1] = biological target: T1, Human CD19-his protein; assay: SPR Biacore, method of example 7.1, human CD19-His
Method: A sample buffer and a running buffer were HBS-EP+ (10 mM HEPES, 150 mM NaCl, 3 mM EDTA and 0.05% surfactant P20) (GE Healthcare; BR-1006-69). The flow-through cell was set to 25° C. The sample block was set to 16° C. Both were pretreated with the running buffer. In each cycle, an antibody to be detected was first captured with a Protein A chip, and then a single concentration of CD19 antigen protein was injected. The binding and dissociation processes of the antibody and the antigen protein were recorded, and finally Glycine pH 1.5 (GE Healthcare; BR-1003-54) was used to complete chip regeneration. The binding was measured by injecting different concentrations of recombinant human CD19-His proteins in a solution for 240 s with a flow rate of 30 μl/min. The concentration started from 200 nM (see the detailed results for the actual concentration in the test) and was diluted at 1:1, making a total of 5 concentrations. The dissociation phase was monitored for up to 600 s and was triggered by switching from sample solution to running buffer. The surface was regenerated by washing with a 10 mM glycine solution (pH 1.5) for 30 s at a flow rate of 30 μl/min. Bulk refractive index difference was corrected by subtracting the response obtained from the goat anti-human Fc surface. Blank injection was also subtracted (=double reference). For calculation of apparent KD and other kinetic parameters, Langmuir 1:1 model was used.
SPR (biacore) detection and data analysis were performed according to the method in example 7.1.

Human CD19-his protein [2] = biological target: T1, Human CD19-his protein; assay: ELISA, coated human CD19-His
Method: Human CD19-his protein (purchased from ACROBiosystems, catalog number: CD9-H52H2) was diluted with PBS to a final concentration of 4 μg/mL, and then added to a 96-well ELISA plate at 100 μl/well. The plate was sealed with a plastic film and incubated overnight at 4° C., the plate was washed 2 times with PBS the next day, and then a blocking solution [PBS+2% (w/w) BSA] was added for blocking at room temperature for 2 h. The blocking solution was poured off, and 100 nM gradiently diluted CD19 chimeric antibody or control antibody was added at 50 μl/well. After incubation at 37° C. for 2 h, the plate was washed 3 times with PBS. […] TMB substrate was added at 50 μl/well, and incubated at room temperature for 10 min, and then a stop solution (1.0 N HCl) was added at 50 μl/well. The OD450 nm values were read by an ELISA microplate reader (Multimode Plate Reader, EnSight, purchased from Perkin Elmer).

[3] = biological target: T2, human CD19 exon1-3-His tag protein; assay: ELISA, coated human CD19 exon 1-3-His
human CD19 on Raji cells = biological target: T3, human CD19 on Raji cells; assay: FACS on Raji cells
Method: (§1) After the digestion was terminated, the cells were washed 2 times with a PBS buffer; and for suspension cell Raji, the supernatant of the medium was discarded by directly centrifugation, and the cell pellet was washed 2 times with PBS. After counting the cells in the previous step, the cell pellet was resuspended with [PBS+2% (w/w) BSA] blocking solution to 2×10⁶ cells/ml, and added to a 96-well FACS reaction plate at 50 μl/well, and then the sample to be tested was added at 50 μl/well, and incubated on ice for 2 h. The obtained mixture was centrifuged and washed 3 times with a PBS buffer. […] The obtained mixture was centrifuged and washed 5 times with a PBS buffer, and FACS (FACS Canto™, purchased from BD Company) was used for detection and result analysis. Data analysis was performed by software (FlowJo) to obtain the mean fluorescence intensity (MFI) of the cells. And then software (GraphPad Prism8) was used for analysis, data fitting, and EC50 value calculation. […] The same method was used to detect the binding of the chimeric antibodies to endogenous CD19-negative cells, MoLT4 cells (purchased from ATCC, CRL-1582), and CHO-K1 cells.

Human CD19-his protein [4] = biological target: T1, Human CD19-his protein; assay: ELISA on coated human CD19-His
[5] = biological target: T4, human CD19 on CHO-K1-human CD19 cells; assay: FACS on CHO-K1-human CD19 cells
Method: as §1

Kd (Human CD19-his protein [1]) [nM]	koff (Human CD19-his protein [1]) [s⁻¹]	kon (Human CD19-his protein [1]) [M⁻¹ s⁻¹]	OD450 at 0.0001 nM (Human CD19-his protein [2]) [OD450]	OD450 at 0.001 nM (Human CD19-his protein [2]) [OD450]	OD450 at 0.01 nM (Human CD19-his protein [2]) [OD450]	OD450 at 0.10 nM (Human CD19-his protein [2]) [OD450]	OD450 at 1.00 nM (Human CD19-his protein [2]) [OD450]	OD450 at 10 nM (Human CD19-his protein [2]) [OD450]	OD450 at 100 nM (Human CD19-his protein [2]) [OD450]	OD450 at 0.0001 nM [3] [OD450]	OD450 at 0.001 nM [3] [OD450]	OD450 at 0.01 nM [3] [OD450]	OD450 at 0.10 nM [3] [OD450]	OD450 at 1.00 nM [3] [OD450]	OD450 at 10 nM [3] [OD450]	OD450 at 100 nM [3] [OD450]	EC50 (human CD19 on Raji cells) [nM]	Maximum mean fluorescence intensity (human CD19 on Raji cells) [MFI]	EC50 (read off the curve) (Human CD19-his protein [4]) [nM]	further results	Binder
0.0284	3.45e-06	121000	0.12	0.16	0.44	1.79	2.73	2.64	2.84	0.07	0.06	0.06	0.07	0.08	0.08	0.11	0.43	30500	~0.05	EC50 [5]: 1.18 nM; Maximum mean fluorescence intensity [5]: 51600 MFI	F3.121.4-L1H1 (antibody, mouse IgG1, kappa, V domains shown, humanized antibody of F3.121.4, VL1+VH1, murine IgG1 constant regions) VH: EVQLVQSGAEVKKPGASVKVSCKASGYTFTNYWMHWVRQAPGQRLEWMGEIDPSDNYANYNQEFQGRVTITVDKSASTAYMELSSLRSEDTAVYYCARHDGYFGALDYWGQGTTVTVSS VL: EIVLTQSPATLSLSPGERATLSCSASSSISSNYLHWYQQKPGQAPRFLIYRTSNLASGIPARFSGSGSGTDFTLTISSLEPEDFAVYYCQQASSIPRMFTFGQGTKLEIKR
0.000205	1.86e-08	91100	0.1	0.13	0.39	1.56	2.51	2.55	2.67	0.05	0.05	0.05	0.05	0.05	0.05	0.08	0.44	31600	~0.05	EC50 [5]: 1.19 nM; Maximum mean fluorescence intensity [5]: 54700 MFI	F3.121.4-L1H4 (antibody, mouse IgG1, kappa, humanized antibody of F3.121.4, VL1+VH4, murine IgG1 constant regions) heavy: EVQLQQSGAEVKKPGASVKVSCKASGYTFTNYWMHWVRQRPGQGLEWMGEIDPSDNYANYNQEFQGRVTITVDKSASTAYMELSSLRSEDTAVYYCARHDGYFGALDYWGQGTTVTVSSAKTTPPSVYPLAPGSAAQTNSMVTLGCLVKGYFPEPVTVTWNSGSLSSGVHTFPAVLQSDLYTLSSSVTVPSSTWPSETVTCNVAHPASSTKVDKKIVPRDCGCKPCICTVPEVSSVFIFPPKPKDVLTITLTPKVTCVVVDISKDDPEVQFSWFVDDVEVHTAQTQPREEQFNSTFRSVSELPIMHQDWLNGKEFKCRVNSAAFPAPIEKTISKTKGRPKAPQVYTIPPPKEQMAKDKVSLTCMITDFFPEDITVEWQWNGQPAENYKNTQPIMDTDGSYFVYSKLNVQKSNWEAGNTFTCSVLHEGLHNHHTEKSLSHSPGK light: EIVLTQSPATLSLSPGERATLSCSASSSISSNYLHWYQQKPGQAPRFLIYRTSNLASGIPARFSGSGSGTDFTLTISSLEPEDFAVYYCQQASSIPRMFTFGQGTKLEIKRADAAPTVSIFPPSSEQLTSGGASVVCFLNNFYPKDINVKWKIDGSERQNGVLNSWTDQDSKDSTYSMSSTLTLTKDEYERHNSYTCEATHKTSTSPIVKSFNRNEC
